Experimental data published in the supplement of paper PMC12042874.
± gives the uncertainty stated by the source.

Assay: amyloid nucleation score (Sup35N fusion, yeast selection) (log enrichment); library NNK3; higher = more nucleation; inactive = no reads after selection
Summary of the method: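 Plasmid inserts were Illumina-sequenced at input and output from psi-negative yeast expressing Sup35N fused to peptides of 20 random codons. The yeast were induced with 100 μM copper sulfate for 24 hours and grown 7 days at 30°C on medium lacking adenine and uracil, and sequences with under 100 input reads were excluded. Nucleation score is the DiMSum log enrichment of output over input reads, centred on the mode score of non-aggregating sequences.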

Row | Substance | amyloid nucleation score
1 | VGFCNGIGVVMGRPAKCSWR | -0.06 ± 1.1
2 | CVSDLCSW | inactive
3 | SLVEAGMFTQFS | inactive
4 | TFCLSYFHLL | inactive
5 | VCQESPSEIGES | inactive
6 | LWTVNRECM | inactive
7 | ITICVSIF | 1.75 ± 0.072
8 | PFLCFRIYFSACWINLTLNL | 1.78 ± 0.086
9 | CQSLLSGRFTGKSFEIT | inactive
10 | YLSNLYSPKRNWAAVL | inactive
11 | EYKRTSMVVQFSCSAYILTF | inactive
12 | FGMLFIWRK | inactive
13 | SLMSSATICTFMG | inactive
14 | NLYRRYHVHSKRALSIYSTP | -0.033 ± 0.23
15 | IGAWHVLITGCTFQEIPR | 1.88 ± 0.064
16 | MTRVYLMNFVLQLASTSQDS | 2.54 ± 0.065
17 | FICHYEHKKVRHRVYAKAYI | inactive
18 | YLWGGLRMYCRKLQHYFVLS | inactive
19 | NFQVDNVGSYS | inactive
20 | FSREYP | inactive
21 | ELSSLSFHIHNMEFREKVKG | inactive
22 | SQCFIY | -0.514 ± 0.78
23 | ERRIPRSNLKRRSKLSKFPA | inactive

Row | Substance | amyloid nucleation score
24 | YSCYSSLL | inactive
25 | SKHIIFSFIGDLI | 0.654 ± 0.11
26 | GQFCCVCARIKLCRYSFNCY | 2.45 ± 0.082
27 | YDLVIGCVMNVLFVLRCATR | inactive
28 | KQSMRQSYSVPPEEVDKQGR | inactive
29 | RYGTVDCIYCFMDLGVRDTG | 2.46 ± 0.081
30 | TEISSSMSFVHNFIYVCDR | inactive
31 | VMLHSRFGRFRDNVTL | inactive
32 | CFVKGFTIETFWLKVVGIRG | inactive
33 | RYTNAYRQASLRV | inactive
34 | SDYLFSQRGFVGSASCVLVM | inactive
35 | VGCLGGRSTSSRWSSLRLLV | inactive
36 | WIRVDRCGCARVPLGDHVKK | inactive
37 | ALPREPESVLG | inactive
38 | LSTCFTGAFRVSNREKSNVS | 0.059 ± 0.43
39 | GLLNRIIVLYTLLNSDIRES | inactive
40 | TADDNVIRLAYFNVTTPLWF | inactive
41 | SAQFRFKSSV | 1.35 ± 0.089
42 | TYVGVYALIF | -1.12 ± 1.5
43 | LDIDSFYCVLR | 1.23 ± 0.12
44 | CCKSCSTLFLNFSLFNDLLT | inactive
45 | YPLASYGLMCGFETDYPGAA | inactive
46 | VRILLRFLVVFRLYLVFC | inactive

Row | Substance | amyloid nucleation score
47 | SFYGHVHMDTCCN | inactive
48 | QSQWFGIVFMLNIMRSRDFR | 0.645 ± 0.12
49 | DTQSKTRRV | inactive
50 | IACFMI | inactive
51 | TLDLSHTMVCRLEYFSSAIG | inactive
52 | NSASSFCPRRLCYGRRQEDL | inactive
53 | RRGSNTGCPNVQNFVITLWQ | inactive
54 | NLAFTNVKVWVWSFSLLLYC | inactive
55 | FRNSLQ | -0.725 ± 1.1
56 | GVMDDSDIL | -0.492 ± 0.84
57 | CGMLTGVIKNLDLTRRYKC | inactive
58 | KKKAGLGRDWYWTVFLMVLS | inactive
59 | LNWLITYLGKR | 2.24 ± 0.092
60 | TYLALGLSSSMLRESLKWEV | inactive
61 | NSTINAPRLTRPGGPCSRKV | inactive
62 | VNSLATRNFIGTLCVVSHKR | inactive
63 | FSLSPIFWYAG | inactive
64 | DFSYRENYVPIDGIRLTVFW | inactive
65 | LRQQRHACAIMEVSG | inactive
66 | STTLWAIALGLYNTVYSLAN | inactive
67 | STPWHSRAISVALDRGDRWM | inactive
68 | IYCKVVALKRFHWMEAYA | inactive
69 | APTRSV | inactive

Row | Substance | amyloid nucleation score
70 | NLEFFCKDV | inactive
71 | PYVQRNVCCAPV | inactive
72 | NYGPGHRGGSN | inactive
73 | IWLTWTSEYCTIFGFVLPVV | inactive
74 | NYRRTCTVLSDGYFNYIT | inactive
75 | ACIVARARSSVVTCF | inactive
76 | SLGSVVTSFASEMWTADGTR | inactive
77 | KHVMLCCNFRKLHSATHKRT | inactive
78 | MCFNYCGVWASYLNRSVSFI | inactive
79 | CVEVWLPYFFLSMS | inactive
80 | DDIYKEVDRWKNWYRRLKHT | inactive
81 | FMMEACSSDKGEQSMGSWIE | -0.32 ± 0.78
82 | YSSKIFHRLTK | inactive
83 | RANLSDFYYSSSIDLKLPLT | inactive
84 | ITSGFDVEKCGNVNLSWEVW | inactive
85 | KRWIAHASWSSTGTWFWSGG | inactive
86 | ILHLQSPGQATCANNKCLFP | inactive
87 | SVVMVRSVYIERSVEPPAPG | -0.607 ± 1.4
88 | ITNYLWGGKGHRNKVLSNSC | inactive
89 | FEYNRQYTRLSSVRVRIRGS | inactive
90 | LCCGVCR | inactive
91 | SCIYMSC | 1.73 ± 0.073
92 | PWKLYYNFQVLLLNAGHLML | inactive

Row | Substance | amyloid nucleation score
93 | LWQDMRLLSGLL | inactive
94 | RGRRSCRARRYTTGAFHELL | inactive
95 | SVNSVTWLFVRMQYFLFISC | inactive
96 | TYQSVDTVLSSVT | inactive
97 | DIDTLYTTIEKCFEDIT | inactive
98 | CVSEKQWLSVVVELVFWGCG | -0.821 ± 1.3
99 | STLGTRSRDFLMIFSNRSTE | inactive
100 | KGFDRMMGVH | inactive
101 | EDKGYWNLQAIEIVIQYGGR | 0.225 ± 0.43
102 | YTVEWWVINCFGGKADL | inactive
103 | LLTIKN | inactive
104 | GKKNYLF | inactive
105 | ECYLEIASDSYINLKFARIE | 0.019 ± 0.73
106 | YGGMVN | inactive
107 | YVSGKSSYIIF | 0.116 ± 0.71
108 | VGLIRCLVDVKLI | inactive
109 | VEDKCVWFV | inactive
110 | HDCGYQITYGDNRIVYMCFV | inactive
111 | TRYIIMCPILCRSEMVLPVR | inactive
112 | CYWTYVRLSSVFRDHIVALT | inactive
113 | DLRLFFRRRGISQLDC | 0.356 ± 0.26
114 | CFAIWVCKSVR | inactive
115 | RCFSRRSCCGSVVWTVRVRH | inactive

Row | Substance | amyloid nucleation score
116 | WFFMTCNGCFDHGGVKCLRS | inactive
117 | RCLSDCYVRNECTF | inactive
118 | RFVGVATTSFLTVTFGLVCE | inactive
119 | WVFVDLLSNVVFNGKIVERC | inactive
120 | SRRDYRLGSTVKLVVLGKSF | inactive
121 | SEASYIIIFSGFSGFMPKLG | inactive
122 | ICLAFRPECCCGIWTDKRIG | 1.74 ± 0.088
123 | VGIIVFLIAFHYYKRSMYWD | inactive
124 | ICIHLELRILCPHHAPDGSL | -0.118 ± 0.43
125 | PLTVI | inactive
126 | TARHKHGLSLCDGVADLRGC | inactive
127 | LLWKKRVEEDSWLHTGSERM | 0.904 ± 0.15
128 | SSTSCTHGYVGMFGFPSVVS | inactive
129 | LNFEATSYLTMRYDLSYVRF | inactive
130 | VEPYRVLYRNGR | inactive
131 | DIFWYTASNYYIIYNAYYPA | 0.709 ± 0.14
132 | RLLFFLDRKDLDAGGVFSKG | inactive
133 | RFGGVLVVFGEWNDVVREAV | inactive
134 | VFSNSGAETVLGLSKGWSDV | -0.542 ± 0.96
135 | PIRWYRRSLFLCWLTDDRLG | inactive
136 | KAQAFLWPVPDIQ | -0.571 ± 1.9
137 | CDWPPAFYQC | inactive
138 | KKGGVVINVSTNRIRTLTCP | inactive

Row | Substance | amyloid nucleation score
139 | GTRMNGSGFVKRAL | inactive
140 | NMVIV | inactive
141 | ASRHSQMWIS | 0.129 ± 0.88
142 | GNYIITLY | inactive
143 | GRDLLLRHTMSRGCQILLE | inactive
144 | GMRFCVNVVCMRSLPSCAMK | 1.43 ± 0.095
145 | KSDEVTFMWHSHGIRMFR | 0.357 ± 0.4
146 | CNGFTVGWPWGRRLRDPPGH | -0.598 ± 2.4
147 | LVQIPYTDDVRLKGMINP | inactive
148 | IYMRRESGVLGEQ | inactive
149 | RLFKSGEFDFCYIRGHCCSV | inactive
150 | QSTIEKHDMPDRLFIVAAGS | inactive
151 | ASDKMELILLLTSYRSYYDC | inactive
152 | RYLILMDCFR | 0.291 ± 0.23
153 | GLKWWLISASSVNFICVRYT | 0.104 ± 0.23
154 | LQANAI | inactive
155 | VRPLRSVLFDVASNVIGSVG | inactive
156 | FRFGSVELLEAGTIQ | 0.043 ± 0.63
157 | NVVYTFPLYASDMGIGV | inactive
158 | VCFDSVAMDNHDYPCVTRYM | inactive
159 | NTCSLFSKISDNIQRSAHAR | inactive
160 | SDLYDVVEPVAMVTCDSKEK | inactive
161 | VYTTS | inactive
